The values that follow come from the nanobody polyreactivity screen of Harvey et al. (2022).

This series in a line: yeast display, Sf9 membrane polyspecificity reagent, FACS + sequencing; frameworks hold sequencing errors. Put shortly: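 Using colony PCR, genes from sorted yeast display clones were amplified, then sequenced on MiSeq at 2 × 250 and filtered by CDR length. The clones had been stained with 10% biotinylated, detergent-solubilized Sf9 membrane reagent for 1 hour at 4 °C and sorted by FACS into low and high (top ~1%) gates on anti-HA and streptavidin fluorescence. Polyreactivity labels come from the gate of origin.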
On to “QVQLVESGVGLVQAGGSLSLSCAASGSTFPKYAMGWYRQAPGKERELVAAISGSGGSTYYADSVKGRFTISRDNAKNTVYLQMNSLKREDTAVYYCAVAWNVRGVGARQRYIYGYWGQGTQVTVSS”, for which the “polyreactivity (PSR sort gate)” value was “high polyreactivity”.

For “QVQLVESGVGLVQAGGSLSLSCAASGTFVLYAMGWYRQAPGKERELVAAISKTGRTYYADSVKGRFTISRDNAKNTVYLQMNSLKPEDTAVYYCAAQRFSKFGYWGQGTQVTVSS”, the “polyreactivity (PSR sort gate)” value was “high polyreactivity”.

Turning to “QVQLVESGVGLVQARGSLRLSCAASGITFRRYAMGWYRQPPGKERELVAAITSSGGSTYYADSVKGRFTIPRDNAKNTVYLQMNSLKPEDTAVYYCAAAFFSQYYLYDYWGQGTQVTVSS”, the “polyreactivity (PSR sort gate)” value is given as “high polyreactivity”.

As for “QVQLVESGVGLVQARGSLRLSCASSGSILIYNAMGWYRQAPGKVRELVAGISRRGDSTYYADSVKGRFTISRDNAKKTVYLQMNSLKPEDTAVYYCAALGKYIVAWSGDYWGQGTQVTVSS”, the “polyreactivity (PSR sort gate)” value is reported as “low polyreactivity”.

Regarding “QVQLVESGVGLVQAVGSLRLSCAASGSTFYYYAMGWYRQAPGKERELVAAISWSGAYTFYSDSVKGRFTISRDNAKNTVYLQMNSLKPEDTAVYYCAARYYGQPQYQPLYYWGQGTQVTVSS”, the “polyreactivity (PSR sort gate)” value was “high polyreactivity”.

With “QVQLVESGVGLVQPGGSLRLIRAAYGRILRDYDMGWYSTAPRKERELVAAINWSDGSTYYADSVKGRFTISRDNAKYTVYLQMNCQKPVDTAVYYCAAEPYVFGLSSKRFWYNYWGQGTEVTVSS”, the “polyreactivity (PSR sort gate)” value is listed as “low polyreactivity”.

Consider “QVQLVESGVGLVQSGGSLRLSCAASGFSIEPYAMGLYRQAPGKERELVAAISWSGGSTYYADSVKGRFTISRDNAKNTVYLQMNSLKPEDTAVYYCAAEWYNSAYYEYDYWGQGTQVTVST”, for which the “polyreactivity (PSR sort gate)” value was “high polyreactivity”.

In the case of “QVQLVESGVRLVQAGGSHRLSCAASARTFYPNAMGWYRQAPGKEREFVARISDSGGSSYYADSVKGRFTISRDNAKNTVYLQMNSLKPEDTAVYYCAADYVDPRVNEYDYWGQGTQVTVST”, the “polyreactivity (PSR sort gate)” value is “low polyreactivity”.

With “QVQLVESGVRLVQAGGSLRLSCAASGFTFRLYAMGWYIQAPGKERELVAATTSGGSTYYADSVKGRFTISRDNAKNTVYLQMNSLKPEDTAVYYCNKLYRTSVEYDYWGQGTQVTVSS”, the “polyreactivity (PSR sort gate)” value is recorded as “high polyreactivity”.

“QVQLVESGVVLVQAGGSLRLSCAASGSIFAGYVMGWYRQAPGKERELVASISSGTGTYYADSVKGRFTISRDNAKNTVYLQMNSLKPEDTAVYYCAAECYRTVQFIRSRWSYTYDYWGQGTQVTVSS”: the “polyreactivity (PSR sort gate)” value is listed as “low polyreactivity”.

For “QVQLVESLGGLLHAGGSLRLSCGASGSIFGSNALGWYRQAPGKERELVAAINYSGGSTTYADSVKGRFTISRDNAKNTVYLQMTSLKPEDTAVYYCNADVLYQFDEGVWSDYWGQGTQVTVSS”, the “polyreactivity (PSR sort gate)” value was “low polyreactivity”.

Turning to “QVQLVESLGGLVQAGGSLRLSCAASGFTFGAYAMGLYRPAPGKERELVATMDWRGSSTYYADSVKGRFTISRDNAKNTVYLQINCLKPVDTAVYYCAARLARGSYAYEYWGHGTQVTVSS”, the “polyreactivity (PSR sort gate)” value is “low polyreactivity”.

As to “QVQLVESRAVLVQAGGSLRLSCAASGSIFYVYAMGWYRQAPGKERELVAAISSSSDSTYADSVKGRFTISRDNAKNTVYLQMNSLKPEDTAVYYCATAWYYGIVRGGLPYDYWGHGTQVTVSS”, the “polyreactivity (PSR sort gate)” value is “low polyreactivity”.

As to “QVQLVESRGAIVQAGASLRLSSAASGFTFWDYAMGCYRQAPGKERELVAAISSRGTRTYYADSVKGRFTISRDNAKNTVYLQMNSLKPEDTAVYYCATASPDPDYIHNYWGQGTQVTVSS”, the “polyreactivity (PSR sort gate)” value is “high polyreactivity”.

For the sequence “QVQLVESRGALVQAGASLRLSCAASALTFVKNVMGWYRQAPGKERELVAAISSGGSTYADSVKGRFTISRDNAKNTVYLQMNSLKPEDTAVYYCNADFRARNYHYYPRRFKYYYWGQGTQVTVSS”, the “polyreactivity (PSR sort gate)” value was “high polyreactivity”.

For “QVQLVESRGALVQAGGSLRLSCAATGSSFNRYAMRWYRQAPRKERELVAAISSGRTTNYADSVKGRFTISRDNAKNTVYLQMNSLKPEDTAVYYCNRKFRYSSHTNYYYWGQGTQVTVSS”, the “polyreactivity (PSR sort gate)” value is listed as “high polyreactivity”.

As for “QVQLVESRGCLVQAGGSHRLSCAASGSISDVNPMGWYRQARGNERELFAAMTSRRGGTNYADSVKGRFTISRDYAKNTVYLQMNSLNPEDTAVYYCAVYVSTKASKQGYGPGDYWGQGTQVTVSS”, the “polyreactivity (PSR sort gate)” value is “low polyreactivity”.

On to “QVQLVESRGCLVQAGVSLRLSCSASGSIFKIYAMGWYRQAPGKERELVATITGIADSTYYADSVKGRFTISRDNAKNTVYLLMNSLKPDDNAVYYCAADNYVADYDYWGQGTQVTVSS”, for which the “polyreactivity (PSR sort gate)” value was “low polyreactivity”.

With “QVQLVESRGGIVQAGGSLRLSCAASGRIFSRYAMGWSRQAPGKEREMVAAISWSGGSTFYADSVKGRFTISRDNAKNTVYLQMNSLKPEDTAVYDCAAYPRFYGGKDGEYGYWGQGTQVTVSS”, the “polyreactivity (PSR sort gate)” value is recorded as “high polyreactivity”.

As to “QVQLVESRGGIVQAGGSLRLSCAASGSIFTGNAMGWYRQAPGKERELVAAITSSAGSTYYADSVKGRFTISRDNAQYTVYLQMNSLKPEDTAVYYCAKDYYSKHFPNYDYWGQGTQVTVSS”, the “polyreactivity (PSR sort gate)” value is “low polyreactivity”.

Regarding “QVQLVESRGGLDQAGGSLRLSCAASGSIFNAYVMGWYRQAPGKERELVAAISRSGGRTYYADSVKGRFTISRDNAKNTVYLQMNSLKPEDTAVYYCAASTIWHYDSWGQGTQVTVSS”, the “polyreactivity (PSR sort gate)” value is “high polyreactivity”.

On to “QVQLVESRGGLLQAGGSLRLSCAASGFTFRQYTMGWYRQAPGKERELVAGITSSGTRTYYADSVKGRFTISRDNAKNTVYLQMNSLKPEDTAVYYCATYSRWDYGYWGQGTQVTVSS”, for which the “polyreactivity (PSR sort gate)” value is “high polyreactivity”.

With “QVQLVESRGGLVQAAGSLRLSCAASGGTFDINAMGWYRQAHGKEREFVAAISSYDDGTYYADSVKGRFTISRDNAKNTVYLQMNSLKPEDTAVYYCAAEGYYDYLYRHYYWGQGTLVTVSS”, the “polyreactivity (PSR sort gate)” value is given as “low polyreactivity”.

On to “QVQLVESRGGLVQAGGSLRLICAASANNYRYAMGWYRQAPAKEREFVAAISRGGSTFYADSVKGRFTISRDNAKNTVYEQMNRLKPEDSAVFYCDKERYNVYYYSGQGTQVTVSS”, for which the “polyreactivity (PSR sort gate)” value is given as “high polyreactivity”.

Take “QVQLVESRGGLVQAGGSLRLISAASGSSFLSYAMGWYRQAPGKERELVAAITGSGGNTYYADSVKGRFTISRDNAKNTVYLQMNSLIPEDTAVYYCAARAPTWAGTYGYWGQGTQVTVSS”: the “polyreactivity (PSR sort gate)” value is “high polyreactivity”.

Turning to “QVQLVESRGGLVQAGGSLRLSCAACGLIFTRNAMGWYSAAPGKERELVAAISRSGGTTYYADSVKGRFTISRDNAKNTVYLQMNSLKPEDTAVYYCAAGSWWVIGGSVSYWYNYWGQGTQVTVSS”, the “polyreactivity (PSR sort gate)” value is “high polyreactivity”.

On to “QVQLVESRGGLVQAGGSLRLSCAASGFIFLGNAMGWYRQAPGKERELVASISRGGSTNYADSVKGRFTISRDNAKNTVYLQMNSLKPEDTAVYYCAADLSDKFGYWGQGTQVTVSS”, for which the “polyreactivity (PSR sort gate)” value is on record as “low polyreactivity”.

Consider “QVQLVESRGGLVQAGGSLRLSCAASGFIFLPYAMGWYRQAPGKERELVATINSGDSTYADSVKGRFTISRDNAKNTVYLQMNSLKPEDTAVNYCNAYWLVVPVDLDYWGQGTQVTVSS”, for which the “polyreactivity (PSR sort gate)” value is “low polyreactivity”.

As to “QVQLVESRGGLVQAGGSLRLSCAASGFSFAYYAMGWYTQAPGIERELVAGISAGYGSTYYADSVKGRFTISRDNAKNTVYLQMNSLKPEDTAVYYCAADTSSTSINGDIYDYEYWGQGTQVTVSS”, the “polyreactivity (PSR sort gate)” value is listed as “low polyreactivity”.

As to “QVQLVESRGGLVQAGGSLRLSCAASGFTFWFYAMGWYRQAPGKERELVAAISNAGGTNYADSVKGRFTISRDNAKYTVYLQMNSLKPEDTAVYYCAAAWPHWGDLGGTEWYLFYYWGQGTQVTVSS”, the “polyreactivity (PSR sort gate)” value is on record as “low polyreactivity”.

With “QVQLVESRGGLVQAGGSLRLSCAASGITFGRNTMGWYRQAPGKERELVAAIDSGGNTYAESVKGRFTISRDNAKKTVYFQMNSLKPEDTAVYYCAVDGGEFSSYGYWGQGSQVTVSS”, the “polyreactivity (PSR sort gate)” value was “low polyreactivity”.

For “QVQLVESRGGLVQAGGSLRLSCAASGITFILYAMGCYRQAAWKERELVASITSGGSTDYADSVKERFTISGDNAKNTVYLQMNSLKPEDTAVYYCNAAARGSSFDYWGQGTQVTVSS”, the “polyreactivity (PSR sort gate)” value was “low polyreactivity”.

For “QVQLVESRGGLVQAGGSLRLSCAASGITFYVNDMGWYRQEPGTERELVAAISYRGGSTYYADSVKGRFTISRDNAKNTVYLQMNSLKPEDTAVYYCAADYNYWSPHRDDYWGQGTQVTVSS”, the “polyreactivity (PSR sort gate)” value is “low polyreactivity”.

On to “QVQLVESRGGLVQAGGSLRLSCAASGRTFGRYAMGWYRQAPGKERELVAAINRGGSTKYADSVKGRFTISRDNAKNTVYLQMNSLKPEDTAVYYCAKDRHPALHYDYWGQGTQVTVSS”, for which the “polyreactivity (PSR sort gate)” value is given as “low polyreactivity”.

Take “QVQLVESRGGLVQAGGSLRLSCAASGRTFVPYAMGWYIQAPGKERELVAAISYSGDSTYYADSVKGRFTISRDNAKNTVYLQLNSLKPEDTAVYYCAAPSYFRMGYWGQGTQVTVSS”: the “polyreactivity (PSR sort gate)” value is on record as “low polyreactivity”.

As to “QVQLVESRGGLVQAGGSLRLSCAASGSIFIYNAMGWYRQAPGKERELVAANSSSGGSTYYADSVKGRFTNSRDNEKNTVYLQMNSQNPEDTAVYYCAARTYYVRGLRGRPGMDYWGQGTQVTVSS”, the “polyreactivity (PSR sort gate)” value was “low polyreactivity”.

Regarding “QVQLVESRGGLVQAGGSLRLSCAASGSIFSWYTMGWSRQAPGKERELVARITTSGGTPRYADSVKGRFTISRDNAKNTVYLQMNSLKPEDTAVYYCAADRSPYWRGYGRYNYWGQGTQVTVSS”, the “polyreactivity (PSR sort gate)” value is “high polyreactivity”.

As for “QVQLVESRGGLVQAGGSLRLSCAASGSTFPGYAMGWYRQPPGKERELVAAINWRGASTYYADSVKGRFTMSRDNAKNTVYLQMNSLKPEDTAVYYCAGKYNHVTDEYEYWGQGTQVTVSS”, the “polyreactivity (PSR sort gate)” value is “high polyreactivity”.

Consider “QVQLVESRGGLVQAGGSLRLSCAASGSTFVRNAMGWYRQAPGKERELVAAISRSGGRTYYADSVMGRFTISRDNAKNTVYLQMNSLKPDDTAVYYCAKKRSKAISFDYWGQGTQVTVSS”, for which the “polyreactivity (PSR sort gate)” value was “high polyreactivity”.

With “QVQLVESRGGLVQAGGSLRLSCAASRFYTMGWYRQAPGKERELVAAISWSGGDTYYADSVKGRFTISRDNAKNTVYLQMNSLKPDDTAVYYCAKKTIGSYVHEPYYYWGQGTQVTVSS”, the “polyreactivity (PSR sort gate)” value was “low polyreactivity”.

As for “QVQLVESRGGLVQAGGSLRLSCAASVSTFSDYSIGWYRQATGKERELVAGITGGGGTYYADSVKGRFTISRDNAKNTVYLQMNSLKPEDTAVYYCAAGRRHGFGYWGQGTQVTVSS”, the “polyreactivity (PSR sort gate)” value is “low polyreactivity”.
